Data from patent US20050064507A1, “Determining kinase specificity” (priority 2003, published 2005).

Legend:
Format in all cases: biochemical
PKA = molecular target: T1, PKA (Homo sapiens, UniProt P17612); test: In vitro kinase assay: peptide phosphorylation by PKA; details: normalized to best substrate
T1 construct: purchased Calbiochem
Experimental: (§1) Catalytically active preparations of the kinases of interest were either purchased or prepared. Purchased and tested active kinase preparations including the following: PKC-alpha, PKC-delta, PKC-epsilon, PKC-zeta, PKC-mu, PKA, PKG from Calbiochem, ROK alpha/ROCK-II, active from Upstate Biotechnology, and AKT1 from Panvera.
(§2) The conditions of the kinase assay and the amount of active kinase used varied with the kinase and with the accuracy needed. For a typical experiment, 5-20 ng of kinase was used per well and each peptide pool was assayed in duplicate wells. Note that the absolute amount of kinase used was not usually a critical parameter, because the desired information related to specificity of the kinase not its absolute activity, and robustness of the assay depends on comparisons of the same amount of kinase on different peptides. The combination of kinase concentration and assay duration was modified to assure that the stoichiometry of peptide phosphorylation never exceeded 5%. The choice of kinase buffer depended on the kinase being analyzed. For studies of PKC, 100 mM HEPES, 0.05% Triton-X100, 1 mM CaCl2, 20 mM MgCl2, 0.2 mg/ml phosphatidyl serine (Avanti Polar Lipids), PMA 100 ng/ml was typically used. The lipid stock was prepared by transferring 3 mg phosphatidyl serine into iced mixture of 450 μl water plus 50 μl of 10% Triton-X100, sonicating 10 times on ice for 1 sec each.
(§3) The kinase reaction mixture was assembled by sequential addition to a tube held on ice of: 5 μl peptide (100 μM for final concentration of 10 μM), 15 μl of kinase (typically 5 ng/well, in appropriate kinase buffer), 30 μl of ATP (1 uCi/well of ^32P-gamma ATP in a stock of 167 μM cold ATP in the kinase buffer; for final concentration for 100 μM ATP). The mixture was rapidly warmed to desired reaction temperature (30° C. for PKC) and incubated for the desired duration (usually 10 minutes). The kinase assay was terminated by transfer to 4° C. water batch, and rapid addition of an equal volume (50 μl) of stop solution [0.1M ATP+0.1M EDTA in water, pH 8].
(§4) The peptides were then captured from the reaction mixture by transfer to a Reacti-Bind Streptavidin High Binding Capacity Coated Plates (HBC) (Pierce Biotechnology) as follows. The HBC plates were pre-rinsed three times with PBS/Tween PBS/Tween20 0.05% (PBS/Tween). Part of all of the reaction mixture was then transferred wells of a HBC plate pre-filled with 90 μl of phosphate-buffered saline (PBS); typically each aliquots of each phosphorylation reaction were transferred to duplicate HBC plates to assure accuracy by additional replication
(§5) For kinase assays done at the standard peptide concentration of 10 μM, the peptide concentration in the reaction mixture becomes 5 μM after addition of the stop solution; consequently 10 μl of the reaction (50 pMoles of peptide) was transferred to the HBC plate. More generally, the amount of reaction mixture transferred was estimated to be about 50 pMoles of peptide. […] The HBC plates were incubated for 0.5 to 1.5 hr at room temperature for complete binding of biotinylated peptides to plate-bound streptavidin. The HBC plates were then washed extensively with PBS/Tween. Five washes were done routinely and additional wash steps were added if the wash solution removed from the plate had measurable radioactivity as detected using a Geiger counter. This step is essential to obtaining a good the signal to noise ratio because the fraction of radioactivity incorporated in the peptides was a tiny fraction of the total in the reaction mixture. The wells were air-dried. A volume of 40-50 μl of microScint-20 (Packard Instruments) was added to each well. The plates were covered with stick-on film sheet. Radioactive emissions were measured in a TopCount NXT Microplate Scintillation and Luminescence Counter (Packard Instruments). Typically samples were counted for 5 minutes (or more) to improve the signal to noise ratio when counts were low. […]

PKC-alpha = molecular target: T2, PKC-alpha (Homo sapiens, UniProt P17252); test: In vitro kinase assay: peptide phosphorylation by PKC-alpha; details: for PKC alpha phosphorylation: normalized to best substrate
T2 construct: purchased Calbiochem
Outline: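 Purified active human PKC-alpha, 5-20 ng per well, phosphorylated biotinylated peptides in duplicate wells with 100 μM ATP including 1 uCi/well of ^32P-gamma ATP. The buffer was 100 mM HEPES, 0.05% Triton-X100, 1 mM CaCl2, 20 mM MgCl2, 0.2 mg/ml phosphatidyl serine and PMA 100 ng/ml. Reactions ran at 30° C., usually for 10 minutes, keeping stoichiometry under 5%. They were stopped with ATP/EDTA, captured on streptavidin plates, washed, and counted by scintillation.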

AKT1 = molecular target: T3, AKT1 (Homo sapiens, UniProt P31749); test: In vitro kinase assay: peptide phosphorylation by AKT1; details: normalized to best substrate
T3 construct: purchased Panvera
Experimental: as §1, §2, §3, §4, §5

PKC-delta = molecular target: T4, PKC-delta (Homo sapiens, UniProt Q05655); test: In vitro kinase assay: peptide phosphorylation by PKC-delta
T4 construct: purchased Calbiochem
Outline: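 Biotin-Lys-dansyl-Lys-Pro-Pro-Gly-linked proteomic peptides (12–21-residue core) phosphorylated by PKC-delta in HEPES/Triton/CaCl2/MgCl2 buffer with phosphatidyl serine and PMA, 100 μM [γ-32P]ATP, 30° C., ~10 min, stoichiometry ≤5%; streptavidin-plate capture. Signal normalized as % of best peptide substrate.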

T3 sequence (P31749 whole entry, species assumed): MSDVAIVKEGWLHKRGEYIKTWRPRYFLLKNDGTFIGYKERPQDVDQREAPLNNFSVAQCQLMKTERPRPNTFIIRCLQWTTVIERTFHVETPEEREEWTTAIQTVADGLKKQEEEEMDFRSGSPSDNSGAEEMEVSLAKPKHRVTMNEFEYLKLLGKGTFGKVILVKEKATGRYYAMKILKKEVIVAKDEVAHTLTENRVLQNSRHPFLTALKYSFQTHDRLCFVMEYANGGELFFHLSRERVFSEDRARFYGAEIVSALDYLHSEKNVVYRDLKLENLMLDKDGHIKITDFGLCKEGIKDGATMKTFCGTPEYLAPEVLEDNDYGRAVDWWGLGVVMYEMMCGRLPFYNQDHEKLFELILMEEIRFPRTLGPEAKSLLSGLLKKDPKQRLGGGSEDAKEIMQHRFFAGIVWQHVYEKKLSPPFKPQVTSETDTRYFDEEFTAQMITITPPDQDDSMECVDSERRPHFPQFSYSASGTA
T4 sequence (Q05655 whole entry): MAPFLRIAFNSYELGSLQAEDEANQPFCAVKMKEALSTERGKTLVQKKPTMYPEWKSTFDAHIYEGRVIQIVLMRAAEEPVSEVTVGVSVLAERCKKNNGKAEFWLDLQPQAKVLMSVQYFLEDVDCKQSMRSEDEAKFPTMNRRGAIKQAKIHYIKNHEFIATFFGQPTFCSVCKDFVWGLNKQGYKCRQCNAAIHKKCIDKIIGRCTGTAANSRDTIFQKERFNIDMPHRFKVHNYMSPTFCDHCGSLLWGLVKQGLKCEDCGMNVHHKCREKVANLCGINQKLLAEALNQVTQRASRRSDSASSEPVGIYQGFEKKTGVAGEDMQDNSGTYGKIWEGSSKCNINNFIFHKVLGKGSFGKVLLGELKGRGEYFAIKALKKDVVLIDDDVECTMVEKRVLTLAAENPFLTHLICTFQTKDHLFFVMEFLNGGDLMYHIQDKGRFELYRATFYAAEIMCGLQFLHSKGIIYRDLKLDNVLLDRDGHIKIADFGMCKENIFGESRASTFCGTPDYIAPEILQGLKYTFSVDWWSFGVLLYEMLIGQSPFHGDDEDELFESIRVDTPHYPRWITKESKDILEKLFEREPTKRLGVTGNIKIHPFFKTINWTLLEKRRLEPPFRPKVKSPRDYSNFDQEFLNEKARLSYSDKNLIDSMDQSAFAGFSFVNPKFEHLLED

Substance: 81 (KRERKTSSKSSVRKRR) [compound 81]
- PKA phosphorylation (PKA): 2%
- PKC alpha phosphorylation (PKC-alpha): 62%
- AKT1 phosphorylation (AKT1): 9%

Substance: 87 (RQGKRKTSIKRDTVNPL) [compound 87]
- PKA phosphorylation (PKA): 64%
- PKC alpha phosphorylation (PKC-alpha): 46%
- AKT1 phosphorylation (AKT1): 7%

Substance: 88 (KKPFKLSGLSFKRNRKE) [compound 88]
- PKA phosphorylation (PKA): 3%
- PKC alpha phosphorylation (PKC-alpha): 48%
- AKT1 phosphorylation (AKT1): 10%

Substance: 91 (VHYTSKDTLRKRHYWR) [compound 91]
- PKA phosphorylation (PKA): 3%
- PKC alpha phosphorylation (PKC-alpha): 60%
- AKT1 phosphorylation (AKT1): 5%

Substance: 97 (KKRSSKKEASMKKVVRP) [compound 97]
- PKA phosphorylation (PKA): 1%
- PKC alpha phosphorylation (PKC-alpha): 37%
- AKT1 phosphorylation (AKT1): 10%

Substance: 98 (AGPLRKSSLKKGGRL) [compound 98]
- PKA phosphorylation (PKA): 21%
- PKC alpha phosphorylation (PKC-alpha): 25%
- AKT1 phosphorylation (AKT1): 7%

Substance: 148 (RELEQLKAEYLERRASRRRA) [compound 148]
- phosphorylation by PKC alpha (PKC-alpha; peptide concentration 1 uM): 19
- phosphorylation by PKC alpha (PKC-alpha; peptide concentration 10 uM): 22
- phosphorylation by PKC-delta (PKC-delta; peptide concentration 1 uM): 27
- phosphorylation by PKC-delta (PKC-delta; peptide concentration 10 uM): 14

Substance: 149 (RVVQSVKHTKRKSSTVMK) [compound 149]
- phosphorylation by PKC alpha (PKC-alpha; peptide concentration 1 uM): 33
- phosphorylation by PKC alpha (PKC-alpha; peptide concentration 10 uM): 52
- phosphorylation by PKC-delta (PKC-delta; peptide concentration 1 uM): 20
- phosphorylation by PKC-delta (PKC-delta; peptide concentration 10 uM): 17

Substance: 150 (VDPFYEMLAARKKRISVKKK) [compound 150]
- phosphorylation by PKC alpha (PKC-alpha; peptide concentration 1 uM): 12
- phosphorylation by PKC alpha (PKC-alpha; peptide concentration 10 uM): 11
- phosphorylation by PKC-delta (PKC-delta; peptide concentration 1 uM): 34
- phosphorylation by PKC-delta (PKC-delta; peptide concentration 10 uM): 20

Substance: 151 (PQNSLKASNRKKKRTSFKRK) [compound 151]
- phosphorylation by PKC alpha (PKC-alpha; peptide concentration 1 uM): 17
- phosphorylation by PKC alpha (PKC-alpha; peptide concentration 10 uM): 16
- phosphorylation by PKC-delta (PKC-delta; peptide concentration 1 uM): 27
- phosphorylation by PKC-delta (PKC-delta; peptide concentration 10 uM): 37

Substance: 152 (DLIEGRKGAQIVKRASLKRG) [compound 152]
- phosphorylation by PKC alpha (PKC-alpha; peptide concentration 1 uM): 13
- phosphorylation by PKC alpha (PKC-alpha; peptide concentration 10 uM): 12
- phosphorylation by PKC-delta (PKC-delta; peptide concentration 1 uM): 35
- phosphorylation by PKC-delta (PKC-delta; peptide concentration 10 uM): 18

Substance: 153 (TYLLPDKSRQGKRKTSIKRD) [compound 153]
- phosphorylation by PKC alpha (PKC-alpha; peptide concentration 1 uM): 17
- phosphorylation by PKC alpha (PKC-alpha; peptide concentration 10 uM): 22
- phosphorylation by PKC-delta (PKC-delta; peptide concentration 1 uM): 32
- phosphorylation by PKC-delta (PKC-delta; peptide concentration 10 uM): 26
